# Assay results taken from article PMC3079584.
# Columns and labels:
# [1] = target: She2p;She3p (Saccharomyces cerevisiae;Saccharomyces cerevisiae) (UniProt P36068+P38272); test: EMSA; settings: EMSA: 20 mM HEPES pH 7.8, 200 mM NaCl, 2 mM MgCl2, 2 mM DTT, 4% glycerol, 30 or 100 ug/ml yeast tRNA, 5 nM RNA, 20 C; filter binding: 20 mM HEPES pH 7.4-7.5 (7.)
# [2] = target: Full-length His-She3p (Saccharomyces cerevisiae) (UniProt P38272); test: SPR; Biacore 3000, CM-5 chip, She3p amine-coupled, She2p flowed over, HNMD-buffer; steady state, Langmuir isotherm; duplicates
# Sequence of Full-length His-She3p (Saccharomyces cerevisiae) (P38272 whole entry): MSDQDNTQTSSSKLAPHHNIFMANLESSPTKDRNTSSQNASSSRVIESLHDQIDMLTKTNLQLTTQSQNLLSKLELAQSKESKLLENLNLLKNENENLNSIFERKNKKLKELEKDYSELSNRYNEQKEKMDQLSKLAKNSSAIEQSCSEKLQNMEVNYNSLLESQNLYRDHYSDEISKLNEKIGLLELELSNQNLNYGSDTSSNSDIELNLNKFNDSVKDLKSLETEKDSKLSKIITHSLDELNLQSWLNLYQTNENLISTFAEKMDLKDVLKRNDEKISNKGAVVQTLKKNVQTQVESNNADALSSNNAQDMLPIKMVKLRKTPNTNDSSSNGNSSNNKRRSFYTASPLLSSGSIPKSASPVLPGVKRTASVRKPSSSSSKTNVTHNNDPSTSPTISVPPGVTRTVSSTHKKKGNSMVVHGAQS
# Sequence of She2p;She3p (Saccharomyces cerevisiae;Saccharomyces cerevisiae) (P36068 whole entry, chain 1 of 2): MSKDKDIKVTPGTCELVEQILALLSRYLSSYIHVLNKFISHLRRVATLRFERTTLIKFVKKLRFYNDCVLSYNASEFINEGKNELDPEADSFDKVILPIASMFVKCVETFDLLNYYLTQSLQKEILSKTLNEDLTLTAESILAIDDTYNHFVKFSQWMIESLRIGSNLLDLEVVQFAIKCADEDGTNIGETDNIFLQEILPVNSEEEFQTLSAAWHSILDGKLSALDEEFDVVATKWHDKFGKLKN
# Sequence of She2p;She3p (Saccharomyces cerevisiae;Saccharomyces cerevisiae) (P38272 whole entry, chain 2 of 2): as the sequence (P38272 whole entry) above
Substance,Kd [1] [nM],Kd [2] [nM]
HIV-1 TAR (length not stated),> 1500,
She2p (ΔC) (from UniProt P36068 1-240) (domain or fragment),,2000
